# Measurements from FireProtDB (doi:10.1021/bi0357412).
# B1: Phosphocarrier protein HPr, P08877 (parent)
# chain: MAQKTFKVTADSGIHARPATVLVQTASKYDADVNLEYNGKTVNLKSIMGVMSLGIAKGAEITISASGADENDALNALEETMKSEGLGE
# Variants of: B1
# Conditions: Bacillus subtilis (strain 168); pH 7; 25 °C; GdnHCl; CD; Potassium phosphate 10 mM; reversible: yes; structure 1SPH; whole UniProt chain shown
Variant,ddG of mutation (higher = less stable) [kcal/mol],denaturant m value [kcal/mol/M],denaturant midpoint (higher = more stable) [M],unfolding free energy [kcal/mol]
D69A G49E,-0.6,2.4,1.8,4.3

# Same assay, conditions: Bacillus subtilis (strain 168); pH 7; 25 °C; Thermal; CD; Sodium phosphate 50 mM; reversible: yes; structure 1SPH; whole UniProt chain shown
Variant,ddG of mutation (higher = less stable) [kcal/mol],unfolding free energy [kcal/mol]
D69A G49E,0.7,4.4

# Same assay, conditions: Bacillus subtilis (strain 168); pH 7; 25 °C; Urea; CD; Sodium phosphate 50 mM; reversible: yes; structure 1SPH; whole UniProt chain shown
Variant,ddG of mutation (higher = less stable) [kcal/mol],denaturant m value [kcal/mol/M],denaturant midpoint (higher = more stable) [M],unfolding free energy [kcal/mol]
D69A G49E,0.7,1.1,3.9,4.2

# Same assay, conditions: Bacillus subtilis (strain 168); pH 7; Thermal; DSC; Potassium phosphate 10 mM; reversible: yes; structure 1SPH; whole UniProt chain shown
Variant,Tm [°C],"change of melting temperature, mutant - wild type (higher = more stable) [°C]",unfolding enthalpy (calorimetric) [kcal/mol]
D69A G49E,70,-4.9,71.5
